Results from PMC12658140 (Nature Communications, 2025).

Columns and labels:
[1] = target: H3N2 A/Moscow/10/1999 HA on infected MDCK-SIAT1 cells (Influenza A virus H3N2 A/Moscow/10/1999, UniProt I6SI59, strain); experiment: flow cytometry on cells; conditions: one partner purified
[2] = target: H14N5 A/mallard/Astrakhan/263/1982 HA protein (Influenza A virus H14N5 …, UniProt P26136, strain); experiment: ELISA; conditions: both partners purified
[3] = target: T1, H3N2 A/Hong Kong/1/1968 HA protein (Influenza A virus H3N2 A/Hong …, UniProt Q91MA7, strain); experiment: ELISA; conditions: both partners purified
T1 construct: source: bought: SinoBiological

B1: AG2-G02 IgG (antibody, V domains shown)
VH: VQLVQSGAEMKKPGASVKVSCKASGYTFSAYYIHWVRQAPGQGLEWMGRINTDSGGTNFAQQFEGRVTMTRDTSISTAYMELSSLRSDDTAVYYCARGYDFWLGSYRAGGWFDPWGQGTLVTVSS
VL: not shown
notes: copies: 2 + 2
binding result [1]: binds
binding result [2]: no binding (tested: 10 μg mL^−1)

B2: 240-14 IgA 2F02 IgG (antibody, V domains shown)
VH: EVQLLESGGGLVQPGGSLRLSCAASGFTFSTYAMSWVRQAPGKGLEWVSTISGSGGSTYDAESVKGRFTISRDNSKNTLYLQMNSLRAEDTAVYYCAKEGGDFWSGYYANWFDPWGQGTLVTVSS
VL: QSALTQPRSVSGSPGQSVTISCTGTRSDVGGYNYVSWYQQHPGKAPKVIIYDVKKRPSGVPDRFSGSKSGNTASLTISGLQAEDEADYYCSAFAGSHTLFGGGTKVTVL
notes: source: Expi293F, transfected, purified (CaptureSelect CH1-XL beads); copies: 2 + 2
binding result [1]: binds
binding result [3]: binds
